One block for each binder: values may come before it.
Assays:
ectodomain of Siglec-7 = target: T1, ectodomain of Siglec-7 (UniProt Q9Y286 19-353, limits assumed); assay: ELISA on coated ectodomains
T1 construct: extracellular domain
Description: (§1) Next, the binding of anti-Siglec-9 monoclonal antibodies ED2D5, C1B613, BC3G5, and DH1A11 to the ectodomains of Siglec-9, Siglec-7, and a control was assessed using ELISA. An anti-Siglec-7 antibody control and isotype control were utilized. […] Antibody clones huCB6B3, mAbA, 68D4, and Tf73 also produced similar EC50 values.
(§2) To perform the ELISA experiments, 96-well plates were coated with recombinant Siglec-9 (SinoBiological, 30109-H03H) (100 μL) at 2 μg/mL in carbonate/bicarbonate buffer pH 9.6 overnight at 4° C., and washed with 250 μL of PBST (PBS, 0.1% Tween-20). Plates were blocked with blocking buffer (3% BSA in PBS) for 1 hour at room temperature, washed, and 100 μL of serially diluted anti-Siglec-9 antibodies-test antibodies, benchmarks, or control-starting at 66.64 nM (4-fold serial dilutions in PBST with 1% w/v non-fat milk), were added for 2 hours at RT. The plates were washed and incubated at room temperature with an anti-mouse IgG HRP detection antibody (1:5000, 1-hour, Anti-mouse IgG-HRP), followed by three washes of 250 μL of PBST, and two more with 400 μL of PBS, before the addition of 100 μL of TMB (Thermo Scientific) for 2-6 minutes. The reaction was stopped with 50 μL of Stop Solution (Thermo Scientific). The OD was measured at 450 nm in a multimode plate reader (Victor Nivo, PerkinElmer). OD values were plotted against antibody concentration, and data were analyzed using GraphPad Prism software.

[1] = target: T2, recombinant Siglec-9 (SinoBiological, 30109-H03H) (human, UniProt Q9Y336 18-348); assay: ELISA on coated ectodomains
T2 construct: also called ectodomain of Siglec-9; recombinant human Siglec-9 protein
T2 sequence (Q9Y336 18-348 limits assumed): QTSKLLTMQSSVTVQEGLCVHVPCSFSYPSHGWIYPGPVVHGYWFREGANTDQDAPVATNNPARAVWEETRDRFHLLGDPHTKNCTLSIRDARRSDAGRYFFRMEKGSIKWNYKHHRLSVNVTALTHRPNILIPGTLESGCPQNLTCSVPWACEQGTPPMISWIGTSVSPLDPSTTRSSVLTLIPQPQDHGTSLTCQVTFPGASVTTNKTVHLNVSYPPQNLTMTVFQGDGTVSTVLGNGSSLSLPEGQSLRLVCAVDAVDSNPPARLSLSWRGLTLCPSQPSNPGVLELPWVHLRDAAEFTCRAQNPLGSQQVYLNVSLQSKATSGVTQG
Description: as §1, §2

[2] = target: T3, human Siglec-9 protein (recombinant; construct not stated) (human, UniProt Q9Y336 18-344, limits assumed); assay: ELISA on recombinant Siglec-9
T3 construct: also called recombinant Siglec-9
T3 sequence (Q9Y336 18-344 limits assumed): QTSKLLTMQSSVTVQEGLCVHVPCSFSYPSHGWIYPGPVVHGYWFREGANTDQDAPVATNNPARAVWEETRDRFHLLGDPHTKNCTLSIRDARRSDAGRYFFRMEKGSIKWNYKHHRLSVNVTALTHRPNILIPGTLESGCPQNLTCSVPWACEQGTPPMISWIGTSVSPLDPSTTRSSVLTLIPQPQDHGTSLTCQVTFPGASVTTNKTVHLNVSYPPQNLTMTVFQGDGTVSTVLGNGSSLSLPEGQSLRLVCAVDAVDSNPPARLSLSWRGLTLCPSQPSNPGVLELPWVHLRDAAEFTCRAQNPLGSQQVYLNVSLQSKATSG
Description: as §1
as §2, with “The reaction was stopped with 50 μL of Stop Solution (Thermo Scientific).” left out

Siglec-8 = Siglec-8 (UniProt Q9NYZ4 17-363, limits assumed); assay: BLI, antibody in Fab format
Chain of Siglec-8 (Q9NYZ4 17-363 limits assumed): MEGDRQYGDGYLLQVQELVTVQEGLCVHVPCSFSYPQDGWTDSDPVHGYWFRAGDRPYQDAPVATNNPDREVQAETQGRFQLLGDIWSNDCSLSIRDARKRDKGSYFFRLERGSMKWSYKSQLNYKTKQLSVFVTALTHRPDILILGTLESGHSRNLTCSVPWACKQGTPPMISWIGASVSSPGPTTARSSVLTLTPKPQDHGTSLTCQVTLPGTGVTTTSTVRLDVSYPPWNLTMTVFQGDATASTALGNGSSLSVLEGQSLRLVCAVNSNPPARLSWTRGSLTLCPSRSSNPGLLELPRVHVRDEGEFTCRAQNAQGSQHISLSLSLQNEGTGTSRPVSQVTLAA
Description: (§3) BLI experiments were performed to assess binding of the generated anti-Siglec-9 antibodies to Siglec family members Siglec-3, Siglec-6, Siglec-7, Siglec-8, Siglec-9, and Siglec-10. The antibodies were tested in Fab format at 250 nM.

Siglec-3 = Siglec-3 (UniProt P20138 18-259, limits assumed); assay: BLI, antibody in Fab format
Chain of Siglec-3 (P20138 18-259 limits assumed): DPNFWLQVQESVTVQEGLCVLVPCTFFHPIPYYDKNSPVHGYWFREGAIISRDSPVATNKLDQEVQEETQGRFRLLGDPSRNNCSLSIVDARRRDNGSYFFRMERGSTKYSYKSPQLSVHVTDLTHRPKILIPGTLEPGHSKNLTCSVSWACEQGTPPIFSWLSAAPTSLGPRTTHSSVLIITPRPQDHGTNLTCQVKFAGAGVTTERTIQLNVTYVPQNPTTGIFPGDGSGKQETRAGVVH
Description: as §3

Siglec-6 = Siglec-6 (UniProt O43699 27-347, limits assumed); assay: BLI, antibody in Fab format
Chain of Siglec-6 (O43699 27-347 limits assumed): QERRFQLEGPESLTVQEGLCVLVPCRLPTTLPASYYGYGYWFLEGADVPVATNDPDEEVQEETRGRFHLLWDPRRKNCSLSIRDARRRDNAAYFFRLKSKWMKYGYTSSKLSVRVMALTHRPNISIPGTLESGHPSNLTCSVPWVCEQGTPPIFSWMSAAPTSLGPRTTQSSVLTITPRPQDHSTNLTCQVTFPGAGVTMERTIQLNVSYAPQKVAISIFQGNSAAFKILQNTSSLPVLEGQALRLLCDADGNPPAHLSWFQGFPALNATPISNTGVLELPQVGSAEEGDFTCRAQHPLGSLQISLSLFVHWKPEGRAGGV
Description: as §3

Siglec-7 (BLI) = Siglec-7 (BLI) (UniProt Q9Y286 19-353, limits assumed); assay: BLI, antibody in Fab format
Chain of Siglec-7 (BLI) (Q9Y286 19-353 limits assumed): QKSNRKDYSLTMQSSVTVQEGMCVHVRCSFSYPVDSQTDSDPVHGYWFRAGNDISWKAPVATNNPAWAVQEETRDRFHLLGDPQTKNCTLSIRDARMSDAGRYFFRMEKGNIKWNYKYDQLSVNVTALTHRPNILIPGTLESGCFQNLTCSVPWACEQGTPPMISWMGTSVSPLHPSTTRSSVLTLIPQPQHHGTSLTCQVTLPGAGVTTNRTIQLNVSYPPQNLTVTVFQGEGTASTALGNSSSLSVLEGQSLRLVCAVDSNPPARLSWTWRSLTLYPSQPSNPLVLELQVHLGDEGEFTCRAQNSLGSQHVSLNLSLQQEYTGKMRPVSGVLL
Description: as §3

Siglec-10 = target: T4, Siglec-10 (UniProt Q96LC7 17-546, limits assumed); assay: BLI, antibody in Fab format
T4 sequence (looked up): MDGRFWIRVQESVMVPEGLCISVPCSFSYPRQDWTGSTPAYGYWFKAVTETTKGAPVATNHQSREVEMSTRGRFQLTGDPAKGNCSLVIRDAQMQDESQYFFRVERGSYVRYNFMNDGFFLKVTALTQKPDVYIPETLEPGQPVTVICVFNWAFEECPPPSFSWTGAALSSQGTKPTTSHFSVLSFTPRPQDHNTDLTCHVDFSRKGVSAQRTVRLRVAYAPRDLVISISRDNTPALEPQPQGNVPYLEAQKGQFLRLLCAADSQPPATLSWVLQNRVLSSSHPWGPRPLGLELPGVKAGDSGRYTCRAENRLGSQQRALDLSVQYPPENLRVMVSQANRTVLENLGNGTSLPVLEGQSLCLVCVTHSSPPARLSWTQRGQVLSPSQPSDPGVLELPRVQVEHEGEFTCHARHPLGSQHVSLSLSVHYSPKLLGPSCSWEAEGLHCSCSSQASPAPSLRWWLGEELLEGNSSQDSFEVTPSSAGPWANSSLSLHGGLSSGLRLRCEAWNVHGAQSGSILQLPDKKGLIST
Description: as §3

[3] = target: T3, human Siglec-9 protein (recombinant; …); assay: ELISA, human Siglec-9 protein coated at 2 µg/mL, antibody titrated 0.4 pM to 400 nM
Description: The binding of the different IgG CB6B3 antibodies was analyzed via ELISA using human Siglec-9 protein as immobilized antigen (2 μg/mL). The different antibodies were titrated from 0.4 pM to 400 nM (FIG. 9). Human Siglec-9 protein was diluted in PBS pH 7.4 and coated overnight at 4° C. Remaining binding sites were blocked with PBS, 2% skimmed milk power (MPBS) for 2 hours. Bound murine IgG CB6B3 antibody was detected with an HRP-conjugated anti-mouse Fc secondary antibody (Sigma Aldrich A554; 1:5,000 dilution). All antibodies were diluted in MPBS. Incubation times were 1 hour each. TMB/H2O2 was used as substrate. […] Thus, the humanised antibodies retained antigen specificity and bound with similar potency to purified antigen in ELISA.

[4] = target: T3, human Siglec-9 protein (recombinant; …); assay: BLI, antibody in Fab format at 250 nM
Description: as §3

T1 sequence (Q9Y286 19-353 limits assumed): as the sequence (Q9Y286 19-353 limits assumed) above

B2: CB6B3 in Fab format (Fab, V domains shown)
VH: EVQLQQSGAEVVRPGALVKLSCKAAGFNIKDYFIHWVKQRPEQGLEWIGLIDPENDNTMYDPRFQVKASLTADTSSNTAYLQLSRLTSEDAAVYYCASTVVARSFDYWGQGTTLTVSS
VL: SIVMTQTPKFLLVSAGDRVTITCKASQSVSNDVAWYQQKSGQSPKLLIYYTSNRYTGVPDRFTGSGYGTDFTFTISTVQAEDLAVYFCQQDFRSPFTFGAGTKLELK
notes: Tested in Fab format in BLI; printed as 'C1B613', read as CB6B3; also called C1B613
binding result (Siglec-8): no binding (tested: 250 nM)
binding result (Siglec-3): no binding (tested: 250 nM)
binding result (Siglec-6): no binding (tested: 250 nM)
binding result (Siglec-7 (BLI)): no binding (tested: 250 nM)
binding result (Siglec-10): no binding (tested: 250 nM)

B3: chimeric IgG1 CB6B3 (cIgG CB6B3) (antibody, V domains shown)
VH: B2 VH
VL: B2 VL
notes: Chimeric IgG1 of CB6B3 made in HEK293-6E cells; also called cIgG CB6Bb
binding result [3]: binds

B5: anti-Siglec-9 monoclonal antibody clone ED2D5 (antibody, V domains shown)
VH: EVQLVESGGGLVKPGGSLKLSCAASGFTFSDYYMYWVRQTPEKRLEWVATISDGGSDTYYPDNMKGRFTISRDNAKNNLYLQMSSLKSEDTAMYYCTRDPDYDDGRFAYWGQGTLVTVSA
VL: DIVMTQSHKFMSTSVGDRVSITCKASQDVGTVVAWYQQKSGQSPKLLIYWSSTRHTGVPDRFTGSGSGTDFTLTISNVQSEDLADYFCQQYIDYPLSFGAGTKLELK
notes: Mouse hybridoma monoclonal antibody
binding result (ectodomain of Siglec-7): no binding
binding result [1]: binds

Other lines, results leading:

binding result (ectodomain of Siglec-7): no binding
binding result [1]: binds
binding result [2]: binds
B1: anti-Siglec-9 monoclonal antibody clone CB6B3 (parental mouse antibody) (antibody, V domains shown)
VH: B2 VH
VL: B2 VL
notes: Mouse hybridoma IgG; also called moIgG CB6B3; mouse IgG CB6B3

binding result [4]: binds
binding result (Siglec-8): no binding (tested: 250 nM)
binding result (Siglec-3): no binding (tested: 250 nM)
binding result (Siglec-6): no binding (tested: 250 nM)
binding result (Siglec-7 (BLI)): no binding (tested: 250 nM)
binding result (Siglec-10): no binding (tested: 250 nM)
B4: ED2D5 in Fab format (Fab, V domains shown)
VH: B5 VH
VL: B5 VL
notes: Tested in Fab format in BLI

— patent US20260022170A1 (ADAPTAM THERAPEUTICS S L, published 2026)
